Assay results published in patent US20250129355A1.

T1: Upstream protein 1 (Up1) from Desulfonema ishimotonii
T1 sequence: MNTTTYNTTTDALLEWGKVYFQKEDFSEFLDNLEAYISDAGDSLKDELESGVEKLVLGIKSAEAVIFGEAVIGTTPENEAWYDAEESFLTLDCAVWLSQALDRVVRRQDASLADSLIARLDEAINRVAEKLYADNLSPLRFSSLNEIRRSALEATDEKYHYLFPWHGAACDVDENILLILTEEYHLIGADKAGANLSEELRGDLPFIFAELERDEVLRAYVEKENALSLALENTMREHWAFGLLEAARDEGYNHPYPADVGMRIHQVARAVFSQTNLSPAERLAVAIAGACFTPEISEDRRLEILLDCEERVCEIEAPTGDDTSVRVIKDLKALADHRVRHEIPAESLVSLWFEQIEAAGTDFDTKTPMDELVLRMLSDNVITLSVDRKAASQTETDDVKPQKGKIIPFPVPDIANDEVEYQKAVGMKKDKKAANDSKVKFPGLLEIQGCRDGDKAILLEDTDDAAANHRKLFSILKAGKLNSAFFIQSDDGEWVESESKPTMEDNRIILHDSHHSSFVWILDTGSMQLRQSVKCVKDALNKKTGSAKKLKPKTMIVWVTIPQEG

B1: gRAMP-CHAT(H615A/C658A)-crRNA complex (enzyme, part only; not given: gRAMP, His tag, crRNA)
chain, part: MSNPIRDIQDRLKTAKFDNKDDMMNLASSLYKYEKQLMDSSEATLCQQGLSNRPNSFSQLSQFRDSDIQSKAGGQTGKFWQNEYEACKNFQTHKERRETLEQIIRFLQNGAEEKDADDLLLKTLARAYFHRGLLYRPKGFSVPARKVEAMKKAIAYCEIILDKNEEESEALRIWLYAAMELRRCGEEYPENFAEKLFYLANDGFISELYDIRLFLEYTEREEDNNFLDMILQENQDRERLFELCLYKARACFHLNQLNDVRIYGESAIDNAPGAFADPFWDELVEFIRMLRNKKSELWKEIAIKAWDKCREKEMKVGNNIYLSWYWARQRELYDLAFMAQDGIEKKTRIADSLKSRTTLRIQELNELRKDAHRKQNRRLEDKLDRIIEQENEARDGAYLRRNPPCFTGGKREEIPFARLPQNWIAVHFYLNELESHEGGKGGHALIYDPQKAEKDQWQDKSFDYKELHRKFLEWQENYILNEEGSADFLVTLCREIEKAMPFLFKSEVIPEDRPVLWIPHGFLHRLPLHAAMKSGNNSNIEIFWERHASRYLPAWHLFDPAPYSREESSTLLKNFEEYDFQNLENGEIEVYAPSSPKKVKEAIRENPAILLLLCAGEADMTNPFRSCLKLKNKDMTIFDLLTVEDVRLSGSRILLGAAESDMVPPLEFSVDEHLSVSGAFLSHKAGEIVAGLWTVDSEKVDECYSYLVEEKDFLRNLQEWQMAETENFRSENDSSLFYKIAPFRIIGFPAE

Tests used:
[1] = tested on: Up1 single alanine substitution mutants
[2] = tested on: Up1 fragment amino acids 296-565
[3] = tested on: TwinStrep-Up1Δloop mutant
[4] = tested on: T1, Upstream protein 1 (Up1) from Desulfonema ishimotonii
[5] = tested on: Up1 with M427 deleted
[6] = tested on: Up1 with D430 deleted
[7] = tested on: Up1-Up3 complex
[8] = tested on: Up1 fragment residues 396-565
[9] = target: Up1 fused to an 3×HA epitope tag (expressed from a plasmid in HEK293T cells) (Desulfonema ishimotonii); assay: cell-based or functional assay

Row | Molecule | gRAMP-CHAT mediated protein cleavage of alanine mutants [1] | cleavage of truncated Up1 [2] | Up1 cleavage in vitro (western blot) [3] | Up1 cleavage in vitro (SDS-PAGE) [4] | cleavage of the protein substrate in vitro (SDS-PAGE) [4] | substrate turnover in vitro [4] | Up1 cleavage in vitro (western blot) [5] | Up1 cleavage in vitro (western blot) [6] | cleavage of Up1 within the Up1-Up3 complex (SDS-PAGE) [7] | proteolytic cleavage of Up1 in the purified Up1-Up3 complex (SDS-PAGE, Coomassie) [7] | cleavage of truncated Up1 in vitro (SDS-PAGE) [8] | efficiency of Up1 cleavage in HEK293T cells across a panel of endogenous transcripts [9] [%]
1 | gRAMP-CHAT-crRNA complex from Desulfonema ishimotonii | No single alanine mutation blocks CHAT protease activity | Smaller versions of Up1 containing amino acids 296-565 retained full activity for processing | truncating the loop by four residues, or deleting M427 alone, prevented in vitro cleavage | the largest protein, Up1, is specifically cleaved in response to target RNA | the substrate is neighboring protein WP_124327587.1 (FIG. 2), that cleavage of the substrate is dependent on presence of a target RNA | cleaving 100-fold excess of Up1 substrate in minutes | truncating the loop by four residues, or deleting M427 alone, prevented in vitro cleavage | the deletion of D430 had no effect | an Up1-Up3 complex which could be cleaved by gRAMP-CHAT in the presence of target RNA | only in the lane with gRAMP-CHAT (+) and target RNA (+) the Up1 band becomes weaker and two new bands appear, at about 50 kDa and just above 15 kDa; much Up1 stays uncleaved; the Up3 band at 25 kDa is unchanged; no new bands without gRAMP-CHAT or with gRAMP-CHAT but without target RNA | Up1 fragments containing residues 396-565 were fully active in vitro | 3 to 22
2 | gRAMP(D429A/D654A)-CHAT-crRNA complex |  |  |  | disrupting the catalytic sites of gRAMP (D429A/D654A) did not |  |  |  |  |  |  |  | 
3 | B1 |  |  |  | mutating the catalytic residues of the CHAT protease (H615A/C658A) abolished activity |  |  |  |  |  |  |  | 
